Experimental data as given in paper PMC11784139.
Numbering of substitutions follows the chain as printed.

Experiments:
Assay in all cases: EMSA
Conditions in all cases: EMSA: 5 mM Tris-HCl pH 7.5, 0.1 mM EDTA, 5 mM MgCl2, 10 mM KCl, 0.2 mM DTT, 30 C, 30 min, native PAGE in 0.5x TBE; MST: 50 mM PBS pH 7.2-7.4, temperature not …
[1] = test system: T1, 6xHis-APR1 F314S F314S (Acinetobacter venetianus RAG-1), ORF:d17a4b85
T1 sequence: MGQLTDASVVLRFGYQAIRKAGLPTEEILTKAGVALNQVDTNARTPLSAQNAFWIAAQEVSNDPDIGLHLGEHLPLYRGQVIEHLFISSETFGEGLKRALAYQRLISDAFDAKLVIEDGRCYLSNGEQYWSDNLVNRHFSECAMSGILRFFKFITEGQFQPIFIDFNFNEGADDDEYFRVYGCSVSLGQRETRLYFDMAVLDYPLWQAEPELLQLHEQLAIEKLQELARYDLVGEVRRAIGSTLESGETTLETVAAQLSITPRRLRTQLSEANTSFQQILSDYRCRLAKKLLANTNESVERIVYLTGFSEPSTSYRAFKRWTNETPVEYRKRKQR

[2] = test system: T2, 6xHis-APR1 F318S F318S (Acinetobacter venetianus RAG-1), ORF:d17a4b85
T2 sequence: T1 sequence with S314F, F318S

[3] = test system: T3, 6xHis-APR1 T306L T306L (Acinetobacter venetianus RAG-1), ORF:d17a4b85
T3 sequence: T1 sequence with T306L, S314F

[4] = test system: T4, 6xHis-APR1 V303E V303E (Acinetobacter venetianus RAG-1), ORF:d17a4b85
T4 sequence: T1 sequence with V303E, S314F

[5] = test system: T5, MBP-APR1 L265S L265S (Acinetobacter venetianus RAG-1), ORF:d17a4b85
T5 sequence: T1 sequence with L265S, S314F

With “AGCCTACCTGATGATCAAATTGGAAAGGCGCAAATTATAGTCAATTTATTTGAAATTTACAAGACGCTCTCTTAGCAAAGCTTGTACAGATGAATTGGAAAAAACTGTCAGACAATCCTCATTTTTTTTTAACAAAAGAAGCAGAATAGTGTTGTCAGTTTGGTCAATCAACGTTAATCTAAAATTATTGTTTATTGTCACAATAACGTATCTACAGGGAAGGGCACTGC (double strand) [apR1 promoter]” the binding [1] was “no binding”, the binding [2] was “no binding” and the binding [3] was “binds”. For the same sequence, the binding [4] was “no binding” and the binding [5] was “no binding”.
